From patent US20220025056A1 (INNATE PHARMA, published 2022)

Experiments:
[1] = target: T1, biotinylated BirA-tagged ILT2 protein tetramerised on APC-conjugated streptavidin (human, UniProt Q8NHL6 24-458, limits assumed, 1 biotin molecule per ILT2 protein (BirA tag)); assay: flow cytometry blocking assay: ILT2-streptavidin-APC complexes pre-incubated with antibody, then added to WIL2-NS cells expressing HLA-A2; blocked ligand HLA-A2
T1 construct: ratio 1 streptavidin per 4 ILT2 protein; streptavidin-APC not written as a chain; also called ILT2-SA tetramers; recombinant biotinylated ILT2
T1 sequence (Q8NHL6 24-458 limits assumed): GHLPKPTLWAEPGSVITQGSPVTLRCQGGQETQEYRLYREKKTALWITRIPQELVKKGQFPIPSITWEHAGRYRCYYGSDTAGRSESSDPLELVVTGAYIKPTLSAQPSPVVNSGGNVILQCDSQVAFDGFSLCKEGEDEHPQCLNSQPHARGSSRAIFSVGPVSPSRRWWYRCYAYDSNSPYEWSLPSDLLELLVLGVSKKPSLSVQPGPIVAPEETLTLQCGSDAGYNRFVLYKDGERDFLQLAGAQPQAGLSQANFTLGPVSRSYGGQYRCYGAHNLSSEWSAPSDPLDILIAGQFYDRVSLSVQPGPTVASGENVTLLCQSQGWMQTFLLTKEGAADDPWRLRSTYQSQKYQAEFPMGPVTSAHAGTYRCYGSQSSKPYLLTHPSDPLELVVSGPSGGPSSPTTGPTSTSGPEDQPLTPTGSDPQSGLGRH

[2] = target: T2, anchored ILT2 D2-D3-D4 domain protein (human, UniProt Q8NHL6 122-650); assay: flow cytometry, CHO cells with anchored ILT2 domain proteins
T2 construct: on CHO cells; the entry includes leader remnant, V5 tag, and the ILT2 transmembrane and cytoplasmic parts
T2 sequence (Q8NHL6 other isoform, or with tags, fused parts or gaps limits assumed): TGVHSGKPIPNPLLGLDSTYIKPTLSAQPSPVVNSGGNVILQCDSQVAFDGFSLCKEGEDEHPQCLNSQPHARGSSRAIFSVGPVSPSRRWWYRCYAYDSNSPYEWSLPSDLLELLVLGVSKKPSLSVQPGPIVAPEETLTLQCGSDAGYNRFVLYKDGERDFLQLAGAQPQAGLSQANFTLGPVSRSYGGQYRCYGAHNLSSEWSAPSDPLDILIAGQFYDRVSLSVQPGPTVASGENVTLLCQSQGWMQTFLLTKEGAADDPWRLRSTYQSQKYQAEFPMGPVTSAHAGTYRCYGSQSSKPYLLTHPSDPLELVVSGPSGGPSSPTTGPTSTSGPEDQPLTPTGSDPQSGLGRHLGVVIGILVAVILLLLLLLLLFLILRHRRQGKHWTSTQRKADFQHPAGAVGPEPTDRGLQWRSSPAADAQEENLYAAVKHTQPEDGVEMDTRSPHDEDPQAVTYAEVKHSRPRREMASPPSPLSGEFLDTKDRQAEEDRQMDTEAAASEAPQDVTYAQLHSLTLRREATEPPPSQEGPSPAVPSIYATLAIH

[3] = target: T3, anchored ILT2 D3-D4 domain protein (human, UniProt Q8NHL6 223-650); assay: as above
T3 construct: on CHO cells; the entry includes leader remnant, V5 tag, and the ILT2 transmembrane and cytoplasmic parts
T3 sequence (Q8NHL6 other isoform, or with tags, fused parts or gaps limits assumed): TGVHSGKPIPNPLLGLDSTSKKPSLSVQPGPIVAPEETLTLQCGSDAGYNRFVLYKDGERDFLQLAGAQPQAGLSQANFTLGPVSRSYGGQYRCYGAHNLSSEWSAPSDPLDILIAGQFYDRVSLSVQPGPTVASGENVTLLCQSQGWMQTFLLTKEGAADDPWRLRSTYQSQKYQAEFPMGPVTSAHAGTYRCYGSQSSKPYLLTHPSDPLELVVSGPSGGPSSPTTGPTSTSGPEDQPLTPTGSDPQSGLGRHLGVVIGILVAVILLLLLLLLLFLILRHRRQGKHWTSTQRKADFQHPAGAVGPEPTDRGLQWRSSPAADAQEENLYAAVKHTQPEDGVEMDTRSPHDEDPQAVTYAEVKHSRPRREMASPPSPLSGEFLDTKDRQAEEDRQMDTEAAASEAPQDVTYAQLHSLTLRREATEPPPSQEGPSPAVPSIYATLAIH

[4] = target: T4, anchored ILT2 D2-D3 domain protein (human, UniProt Q8NHL6 122-321); assay: as above
T4 construct: on CHO cells; the entry includes leader remnant, V5 tag and CD24 GPI anchor signal
T4 sequence (Q8NHL6 other isoform, or with tags, fused parts or gaps limits assumed): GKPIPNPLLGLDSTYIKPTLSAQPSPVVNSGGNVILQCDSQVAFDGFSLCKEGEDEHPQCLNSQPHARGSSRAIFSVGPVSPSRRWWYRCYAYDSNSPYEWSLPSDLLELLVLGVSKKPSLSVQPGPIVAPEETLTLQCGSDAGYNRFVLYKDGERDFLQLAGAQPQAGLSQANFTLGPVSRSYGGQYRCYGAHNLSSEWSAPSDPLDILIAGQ

[5] = target: T5, anchored ILT2 D4 domain protein (human, UniProt Q8NHL6 322-650); assay: as above
T5 construct: on CHO cells; the entry includes leader remnant, V5 tag, and the ILT2 transmembrane and cytoplasmic parts
T5 sequence (Q8NHL6 other isoform, or with tags, fused parts or gaps limits assumed): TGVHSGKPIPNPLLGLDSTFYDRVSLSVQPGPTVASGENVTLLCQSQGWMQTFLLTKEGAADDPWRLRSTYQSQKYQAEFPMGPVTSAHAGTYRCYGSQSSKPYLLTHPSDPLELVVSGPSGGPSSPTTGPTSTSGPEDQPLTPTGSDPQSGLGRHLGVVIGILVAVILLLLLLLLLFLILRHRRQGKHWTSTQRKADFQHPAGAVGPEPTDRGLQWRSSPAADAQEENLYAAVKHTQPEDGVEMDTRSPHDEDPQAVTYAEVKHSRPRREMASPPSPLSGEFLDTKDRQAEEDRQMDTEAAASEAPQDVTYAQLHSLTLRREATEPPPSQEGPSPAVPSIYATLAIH

[6] = target: T6, anchored ILT2 D2 domain protein (human); assay: as above
T6 construct: on CHO cells; the entry includes leader remnant, V5 tag and CD24 GPI anchor signal
T6 sequence (chain, as listed by the source limits assumed): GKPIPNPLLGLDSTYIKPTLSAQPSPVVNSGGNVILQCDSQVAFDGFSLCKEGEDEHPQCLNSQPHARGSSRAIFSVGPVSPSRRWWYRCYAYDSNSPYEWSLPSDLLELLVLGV

[7] = target: T7, anchored ILT2 D3 domain protein (human); assay: as above
T7 construct: on CHO cells; the entry includes leader remnant, V5 tag and CD24 GPI anchor signal
T7 sequence (chain, as listed by the source limits assumed): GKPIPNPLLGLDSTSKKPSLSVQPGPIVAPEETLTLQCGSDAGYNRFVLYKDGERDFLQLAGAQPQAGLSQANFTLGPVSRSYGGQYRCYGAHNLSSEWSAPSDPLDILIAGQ

[8] = target: T8, ILT2 mutant 2 (human, UniProt Q8NHL6 24-650); assay: flow cytometry, ILT2 point mutants
T8 construct: transfected in HEK293T cells; also called M2
T8 sequence (Q8NHL6 other isoform, or with tags, fused parts or gaps mutant): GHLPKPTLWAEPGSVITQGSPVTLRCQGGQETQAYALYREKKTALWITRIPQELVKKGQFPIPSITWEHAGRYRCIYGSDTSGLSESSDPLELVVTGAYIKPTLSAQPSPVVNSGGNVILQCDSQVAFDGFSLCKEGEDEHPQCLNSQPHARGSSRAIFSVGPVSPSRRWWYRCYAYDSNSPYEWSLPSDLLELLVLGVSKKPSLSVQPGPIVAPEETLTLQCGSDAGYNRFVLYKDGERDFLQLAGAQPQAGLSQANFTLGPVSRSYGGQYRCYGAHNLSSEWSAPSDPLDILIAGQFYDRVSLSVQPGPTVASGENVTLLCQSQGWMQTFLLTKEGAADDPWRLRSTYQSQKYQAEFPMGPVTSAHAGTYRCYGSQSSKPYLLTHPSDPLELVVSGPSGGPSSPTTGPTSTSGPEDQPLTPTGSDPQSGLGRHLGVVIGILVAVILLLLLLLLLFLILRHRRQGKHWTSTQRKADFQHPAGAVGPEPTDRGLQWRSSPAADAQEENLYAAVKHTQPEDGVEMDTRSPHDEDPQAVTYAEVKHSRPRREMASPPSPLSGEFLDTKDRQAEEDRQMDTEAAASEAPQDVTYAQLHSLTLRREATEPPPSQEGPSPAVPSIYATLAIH

[9] = target: T9, ILT-2_6xHis recombinant protein (human, UniProt Q8NHL6 24-458); assay: SPR, antibody captured on Protein-A, soluble ILT2 analyte; 1:1 Binding
T9 construct: monomers purified by SEC; also called recombinant 6xHIS tagged ILT2; recombinant human ILT2 proteins
T9 sequence (Q8NHL6 other isoform, or with tags, fused parts or gaps limits assumed): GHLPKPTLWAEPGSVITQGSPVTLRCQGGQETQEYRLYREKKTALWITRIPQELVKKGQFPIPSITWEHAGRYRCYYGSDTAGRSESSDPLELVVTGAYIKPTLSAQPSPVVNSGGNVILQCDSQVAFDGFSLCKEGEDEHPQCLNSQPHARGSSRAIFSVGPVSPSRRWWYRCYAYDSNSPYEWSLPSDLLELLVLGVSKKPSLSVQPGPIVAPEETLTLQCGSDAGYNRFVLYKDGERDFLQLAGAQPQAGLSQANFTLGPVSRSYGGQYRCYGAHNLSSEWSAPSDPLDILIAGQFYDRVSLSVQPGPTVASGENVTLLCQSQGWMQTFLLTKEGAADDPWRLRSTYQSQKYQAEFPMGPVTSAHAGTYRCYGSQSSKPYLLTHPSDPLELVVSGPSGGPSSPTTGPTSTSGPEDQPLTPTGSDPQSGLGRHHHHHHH
Protocol: Measurements were performed on a Biacore T200 apparatus (Biacore GE Healthcare) at 25° C. In all Biacore experiments HBS-EP+(Biacore GE Healthcare) and NaOH 10 mM served as running buffer and regeneration buffer respectively. Sensorgrams were analyzed with Biacore T100 Evaluation software. Protein-A was purchased from (GE Healthcare). Human ILT2 recombinant proteins were cloned, produced and purified at Innate Pharma. Protein-A proteins were immobilized covalently to carboxyl groups in the dextran layer on a Sensor Chip CM5. The chip surface was activated with EDC/NHS (N-ethyl-N′-(3-dimethylaminopropyl) carbodiimidehydrochloride and N-hydroxysuccinimide (Biacore GE Healthcare)). Protein-A was diluted to 10 μg/ml in coupling buffer (10 mM acetate, pH 5.6) and injected until the appropriate immobilization level was reached (i.e. 600 RU). Deactivation of the remaining activated groups was performed using 100 mM ethanolamine pH 8 (Biacore GE Healthcare). […] For blank subtraction, cycles were performed again replacing ILT2 proteins with running buffer. The monovalent affinity analysis was conducted following a regular Capture-Kinetic protocol as recommended by the manufacturer (Biacore GE Healthcare kinetic wizard). Seven serial dilutions of human ILT2 proteins, ranging from 1.95 nM to 250 nM were sequentially injected over the captured antibodies and allowed to dissociate for 10 min before regeneration. The entire sensorgram sets were fitted using the 1:1 kinetic binding model or two state reaction model, as a function of the profile of the curves.

[10] = target: T10, human ILT6 (LILRA3) on CHO cells (human, UniProt Q8N6C8 24-434); assay: flow cytometry, CHO transfectants
T10 construct: also called CHO ILT6 cell line; human ILT-6 polypeptide
T10 sequence (Q8N6C8 other isoform, or with tags, fused parts or gaps): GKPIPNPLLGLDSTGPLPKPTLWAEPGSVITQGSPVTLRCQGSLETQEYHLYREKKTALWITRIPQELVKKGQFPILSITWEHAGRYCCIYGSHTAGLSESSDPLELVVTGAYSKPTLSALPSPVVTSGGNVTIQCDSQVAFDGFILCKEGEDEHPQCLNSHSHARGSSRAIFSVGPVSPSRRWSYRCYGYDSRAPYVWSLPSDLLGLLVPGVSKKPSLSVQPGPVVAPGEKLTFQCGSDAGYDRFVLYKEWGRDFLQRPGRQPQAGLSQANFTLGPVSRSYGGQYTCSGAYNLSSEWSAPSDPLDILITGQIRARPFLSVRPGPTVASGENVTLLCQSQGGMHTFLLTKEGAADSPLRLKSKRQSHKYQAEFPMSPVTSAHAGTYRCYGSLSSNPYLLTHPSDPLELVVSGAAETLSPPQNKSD

IC50 (read off the curve) [1]: ~0.1 µg/mL
binding result [2]: no binding
binding result [3]: no binding
binding result [4]: no binding
binding result [5]: no binding
binding result [6]: no binding
binding result [7]: no binding
binding result [8]: no binding
Kd [9]: 0.2 nM
koff [9]: 0.0001 s⁻¹
kon [9]: 500000 M⁻¹ s⁻¹
binding result [10]: no binding
B1: 48F12 (antibody, human IgG1, V domains shown)
VH: QVQLKESGPGLVAPSQSLSITCTVSGFSLTSYGVSWVRQPPGKGLEWLGIIWGDGSTNYHSALVSRLSISKDNSKSQVFLKLNSLQTDDTATYYCAKPNWDYYAMDYWGQGTSVTVSS
VL: DIQMTQTTSSLSASLGDRVTISCRASQDISNYLNWYQQKVDGTVKLLISYTSRLHSGVPSRFSGSGSGTDYSLTISNLEQEDIATYFCQQGITLPLTFGAGTKLELK
